The values that follow come from patent US20140302123A1.

For the experiment, the target named is PTPN4 as expressed in U373MG cells (human) (UniProt P29074). Kind of experiment: cell-based or functional assay.
PTPN4 as expressed in U373MG cells (human), sequence (P29074 whole entry): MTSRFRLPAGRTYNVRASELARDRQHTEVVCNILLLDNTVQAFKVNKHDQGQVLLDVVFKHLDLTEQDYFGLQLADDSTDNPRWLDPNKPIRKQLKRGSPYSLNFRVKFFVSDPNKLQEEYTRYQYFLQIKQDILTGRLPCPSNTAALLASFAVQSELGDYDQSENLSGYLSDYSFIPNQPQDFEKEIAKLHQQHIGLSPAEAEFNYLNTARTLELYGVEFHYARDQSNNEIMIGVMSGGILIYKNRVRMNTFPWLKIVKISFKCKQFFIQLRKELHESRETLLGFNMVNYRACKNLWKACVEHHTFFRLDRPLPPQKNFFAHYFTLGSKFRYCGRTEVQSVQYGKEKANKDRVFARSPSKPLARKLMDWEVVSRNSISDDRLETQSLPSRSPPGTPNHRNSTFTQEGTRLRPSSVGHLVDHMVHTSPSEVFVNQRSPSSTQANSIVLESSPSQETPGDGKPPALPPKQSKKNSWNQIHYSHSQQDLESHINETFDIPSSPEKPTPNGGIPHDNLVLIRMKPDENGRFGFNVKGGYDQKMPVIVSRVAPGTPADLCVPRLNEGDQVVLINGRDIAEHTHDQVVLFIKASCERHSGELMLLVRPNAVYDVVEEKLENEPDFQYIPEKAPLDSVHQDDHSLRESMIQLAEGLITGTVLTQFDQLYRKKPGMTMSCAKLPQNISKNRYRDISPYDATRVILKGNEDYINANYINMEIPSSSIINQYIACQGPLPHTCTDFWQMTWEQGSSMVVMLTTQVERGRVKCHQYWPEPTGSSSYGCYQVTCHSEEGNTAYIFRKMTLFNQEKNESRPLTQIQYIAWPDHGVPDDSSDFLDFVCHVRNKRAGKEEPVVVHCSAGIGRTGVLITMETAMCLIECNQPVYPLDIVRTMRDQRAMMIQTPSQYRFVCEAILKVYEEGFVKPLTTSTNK

Substance “Tat-conjugated, FITC-labelled GluN2A-16 (peptide)” had a cell death (% of dead cells among peptide loaded cells), U373MG, 3 h, 25 microM, propidium iodide of 29%.
